Assay results from patent US20240002860, “SARS-CoV-2 SPIKE GLYCOPROTEIN-BINDING NUCLEIC ACID MOLECULE, SARS-CoV-2 DETECTION SENSOR, SARS-CoV-2 DETECTION REAGENT, SARS-CoV-2 DETECTION METHOD, AND SARS-CoV-2 VIRUS DEACTIVATOR” (NEC Solution Innovators, Ltd., published 2024).
Residue numbers refer to the chain shown, from its start.

B1: Binding nucleic acid molecule 9 (ssDNA)
DNA: TCCGCCACTGAAATCTAATCTCACATTGTAAGCAAAGGAGAATAAAAAAAAAAAAAAAAAAAAAA
modifications: NG7 (modified thymine, formula 1) at all T 3' of the first 15 nt
B2: Binding nucleic acid molecule 5 (ssDNA)
DNA: GGTTTAGCCCTCGACTCCAAATGTGCACTCTCCCGGTATCCCTAATCTCACCCGATACCGTTGATGTGCTGCCAATACAAAAAAAAAAAAAAAAAAAA
modifications: NG7 (modified thymine, formula 1) at underlined T, i.e. T residues 3' of the first 23 nt (underlining of some T differs between printings)
B3: Binding nucleic acid molecule 7 (ssDNA)
DNA: B2 DNA with A27T, C28G, T29A, C30T, T31A, C33T
modifications: NG7 (modified thymine, formula 1) at all T 3' of the first 23 nt
B4: Binding nucleic acid molecule 11 (ssDNA)
DNA: TGTGCACTCTCCCGGTATCCCTAATCTCACCCGATACCAAAAAAAAAAAAAAAAAAAA
modifications: NG7 (modified thymine, formula 1) at all T 3' of the first 15 nt
B5: Binding nucleic acid molecule 1, 5'-biotin (ELAA) (ssDNA)
DNA: GGTATGTCTCCGCCACTGAAATCCGTGCCTAATCTCACCCCACGGAATTCATGGCAAAGCCGAGGTGTCTTGTATTC
modifications: NG7 (modified thymine, formula 1) at underlined T, i.e. T residues 3' of the first 23 nt
B6: Binding nucleic acid molecule 4 (ssDNA)
DNA: GGTATGTCTCCGCCACTGAAATCTTGTCCCCTAATAGGTTCCGACTGACAAGTGCAAAGCCGAGGTGTCTTGTATTCAAAAAAAAAAAAAAAAAAAA
modifications: NG7 (modified thymine, formula 1) at all T 3' of the first 23 nt
B7: Binding nucleic acid molecule 13 (ssDNA)
DNA: GCTGATACTCGGTATCCCTAATCTCACCCGATACCGAAAAAAAAAAAAAAAAAAAA
modifications: NG7 (modified thymine, formula 1) at all T 3' of the first 12 nt
B8: Binding nucleic acid molecule 3 (ssDNA)
DNA: GGTATGTCTCCGCCACTGAAATCCCTGACCGCTGACCAAATCTCAGTGCAGATGCAAAGCCGAGGTGTCTTGTATTCAAAAAAAAAAAAAAAAAAAA
modifications: NG7 (modified thymine, formula 1) at all T 3' of the first 23 nt
B9: Binding nucleic acid molecule 8 (ssDNA)
DNA: CCACTGAAATCCGTGCCTAATCTCACCCCACGGAATTCATGGAAAAAAAAAAAAAAAAAAAA
modifications: NG7 (modified thymine, formula 1) at all T 3' of the first 11 nt
B10: Control nucleic acid molecule (Song et al. 2020 aptamer) (ssDNA)
DNA: CAGCACCGACCTTGTGCTTTGGGAGTGCTGGTCCAAGGGCGTTAATGGACAAAAAAAAAAAAAAAAAAAAA
B11: Binding nucleic acid molecule 8, 5'-biotin (ELAA) (ssDNA)
DNA: CCACTGAAATCCGTGCCTAATCTCACCCCACGGAATTCATGG
modifications: NG7 (modified thymine, formula 1) at all T 3' of the first 11 nt
B12: Binding nucleic acid molecule 2 (ssDNA)
DNA: GGTATGTCTCCGCCACTGAAATCTAATCTCACATTGTAAGCAAAGGAGAATAAGCAAAGCCGAGGTGTCTTGTATTCAAAAAAAAAAAAAAAAAAAA
modifications: NG7 (modified thymine, formula 1) at all T 3' of the first 23 nt
B13: Binding nucleic acid molecule 6 (ssDNA)
DNA: GGTTTAGCCCTCGACTCCAAATGACATGAGCCAGGTGCATCTTGAACGTCATAGATACCGTTGATGTGCTGCCAATACAAAAAAAAAAAAAAAAAAAA
modifications: NG7 (modified thymine, formula 1) at all T 3' of the first 23 nt
B14: Binding nucleic acid molecule 1 (ssDNA)
DNA: GGTATGTCTCCGCCACTGAAATCCGTGCCTAATCTCACCCCACGGAATTCATGGCAAAGCCGAGGTGTCTTGTATTCAAAAAAAAAAAAAAAAAAAA
modifications: NG7 (modified thymine, formula 1) at underlined T, i.e. T residues 3' of the first 23 nt (underlining of some T differs between printings); 3' poly(dA)20 tail unmodified
B15: Binding nucleic acid molecule 12 (ssDNA)
DNA: TGACATGAGCCAGGTGCATCTTGAACGTCATAGATACCGTTGATGTGCTGAAAAAAAAAAAAAAAAAAAA
modifications: NG7 (modified thymine, formula 1) at all T 3' of the first 14 nt

What was measured:
[1] = molecular target: T1, SARS-CoV-2 spike glycoprotein RBD domain (SARS-CoV-2, UniProt P0DTC2 SEQ:1-223); test: SPR; SB1T, no dextran, 25 C
[2] = molecular target: T1, SARS-CoV-2 spike glycoprotein RBD domain; test: SPR; SB1T + 0.1 mM dextran, 25 C
[3] = molecular target: T1, SARS-CoV-2 spike glycoprotein RBD domain; test: SPR
[4] = molecular target: BSA (bovine serum albumin) (UniProt P02769 P02769:25-607); test: SPR; signal approximately 0; settings: tags: Sigma A7906
BSA (bovine serum albumin), sequence (P02769 25-607, one chain of several): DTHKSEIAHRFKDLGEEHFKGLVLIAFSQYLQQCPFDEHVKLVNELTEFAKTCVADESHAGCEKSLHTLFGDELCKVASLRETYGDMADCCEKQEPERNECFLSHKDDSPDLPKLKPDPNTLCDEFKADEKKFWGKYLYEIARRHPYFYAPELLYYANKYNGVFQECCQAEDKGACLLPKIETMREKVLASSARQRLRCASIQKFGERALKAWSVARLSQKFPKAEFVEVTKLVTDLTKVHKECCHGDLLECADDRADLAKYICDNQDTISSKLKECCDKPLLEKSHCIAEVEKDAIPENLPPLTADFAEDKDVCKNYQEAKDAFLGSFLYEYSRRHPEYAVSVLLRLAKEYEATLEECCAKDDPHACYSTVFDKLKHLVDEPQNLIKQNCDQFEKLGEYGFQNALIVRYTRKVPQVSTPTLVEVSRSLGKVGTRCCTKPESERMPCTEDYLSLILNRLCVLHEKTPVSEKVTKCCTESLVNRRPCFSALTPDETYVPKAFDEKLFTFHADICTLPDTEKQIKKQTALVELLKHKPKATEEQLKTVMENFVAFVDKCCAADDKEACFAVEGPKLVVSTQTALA

[5] = molecular target: T1, SARS-CoV-2 spike glycoprotein RBD domain; test: ELONA
[6] = molecular target: SARS-CoV-2 spike glycoprotein S1+S2 domain (ECD) (SARS-CoV-2, UniProt P0DTC2 SEQ:2-1201); test: SPR; 400 nM protein, SB1T, 25 C; settings: tags: His; Sino Biological 40589-V08B1
[7] = molecular target: SARS-CoV-2 spike glycoprotein S1 domain (SARS-CoV-2, UniProt P0DTC2 SEQ:2-673); test: SPR; 400 nM protein, SB1T, 25 C; settings: tags: Elabscience PKSR030481

Binder	Kd [1]	Kd [2]	Kd [3]	binding result [4]	other results
B1	2.1 nM	20.8 nM			
B2		2.8 nM	< 0.1 nM	no binding	
B3		5.5 nM	< 0.1 nM	no binding	
B4		16.6 nM	< 0.1 nM		
B5					binding result [5]: binds
B6				no binding	binding result [6]: binds; binding result [7]: binds
B7		12 nM	< 0.1 nM		
B8				no binding	binding result [6]: binds; binding result [7]: binds
B9	2 nM	5.3 nM			
B10	65000 nM				
B11					binding result [5]: binds
B12	1.7 nM	3.5 nM		no binding	
B13	3.1 nM	6.7 nM		no binding	
B14		3.2 nM	1.2 nM	no binding	
B15	2.4 nM	7.4 nM			
